Assay results as given in publication PMC6718144, “Structure of the archaeal chemotaxis protein CheY in a domain-swapped dimeric conformation” (Acta Crystallographica. Section F, Structural Biology …, 2019).

Biological target: the molecule itself
Assay: cross-linking; glutaraldehyde, incubation 1, 2, 5 and 10 min before quenching; Coomassie-stained SDS-PAGE

B1: CheF from Pyrococcus horikoshii (PhCheF), non-His-tagged (natural protein, P. horikoshii)
chain: MPIFEARVKVGISSSWVTSRKVSWRDAIAQIESDRIVVKYLKMGEVVGEDSFPFSALIDLGVRIPDELKLNPEKDHFGIKFYIPGRGELLVIFTIEENLLIYDEKKFSEFVHKVFEVLINGKTVMLQLARIIGGAVNMESKWEEGWLRVIKVKSARTQKTERSIVVIIKDKRPVSIFSDLEDIEIEEVDMNGKRVRAWKIRHFHIDQSVTSYLYIPDKQTQLYVLRYLLKYNPAIMEFIMKVSDDFPTLKSEFQEIMEKEIKELEALDEMEKQILVALYSGINPLELHQFLGVSEKEIEEIYDRMIDKGLLKIVMIRKIVDLTNEGRKIVNKLLKYGLVSM
notes: CheF, Pyrococcus horikoshii, ORF PH0494, UniProt O58230; also called PH0494; source: E. coli BL21 Gold (DE3); purified (heating to 80°C, SEC); as lysate supernatant in the pull-down
stoichiometry N: 2
